Results on 14 molecules are retold here after patent US20160250128A1 (INFINITEC ACTIVOS S L, published 2016).

B1: Pamitoyl-Ser-Tyr-Ser-Nle-Glu-His-DPhe-Arg-(3-(2-Naphthyl)-D-alanine)-Gly-Lys-DPro-Val-NH-(CH2)3-(OCH2CH2)2-CH2-NH2, coupled to capsules (peptide)
peptide: SYSXEHFRXGKPV
modifications: N-terminal palmitoyl; Nle at 4 (X); D-Phe at 7; 3-(2-Naphthyl)-D-alanine at 9 (X); D-Pro at 12; C-terminal NH-(CH2)3-(OCH2CH2)2-CH2-NH2
notes: Coupled to the outer surface of fluorescent polymer capsules in the assay; also called peptide of formula (I), AA1 = 3-(2-Naphthyl)-D-alanine
B2: Pamitoyl-Ser-Tyr-Ser-Nle-Glu-His-DPhe-Arg-(3-amino-3-(biphenyl) propionic acid)-Gly-Lys-DPro-Val-NH-(CH2)3-(OCH2CH2)2-CH2-NH2, coupled to capsules (peptide)
peptide: SYSXEHFRXGKPV
modifications: N-terminal palmitoyl; Nle at 4 (X); D-Phe at 7; 3-amino-3-(biphenyl) propionic acid at 9 (X); D-Pro at 12; C-terminal NH-(CH2)3-(OCH2CH2)2-CH2-NH2
notes: Coupled to the outer surface of fluorescent polymer capsules in the assay; also called peptide of formula (I), AA1 = 3-amino-3-(biphenyl) propionic acid
B3: Pamitoyl-Ser-Tyr-Ser-Nle-Glu-His-DPhe-Arg-(3-amino-3-(1-naphthyl) propionic acid)-Gly-Lys-DPro-Val-NH-(CH2)3-(OCH2CH2)2-CH2-NH2, coupled to capsules (peptide)
peptide: SYSXEHFRXGKPV
modifications: N-terminal palmitoyl; Nle at 4 (X); D-Phe at 7; 3-amino-3-(1-naphthyl) propionic acid at 9 (X); D-Pro at 12; C-terminal NH-(CH2)3-(OCH2CH2)2-CH2-NH2
notes: Coupled to the outer surface of fluorescent polymer capsules in the assay; also called peptide of formula (I), AA1 = 3-amino-3-(1-naphthyl) propionic acid
B4: Pamitoyl-Ser-Tyr-Ser-Nle-Glu-His-DPhe-Arg-His-Gly-Lys-DPro-Val-NH-(CH2)3-(OCH2CH2)2-CH2-NH2, coupled to capsules (peptide)
peptide: SYSXEHFRHGKPV
modifications: N-terminal palmitoyl; Nle at 4 (X); D-Phe at 7; D-Pro at 12; C-terminal NH-(CH2)3-(OCH2CH2)2-CH2-NH2
notes: Coupled to the outer surface of fluorescent polymer capsules in the assay; Stereochemistry of the residue at 9 is not specified; also called peptide of formula (I), AA1 = Histidine
B5: Pamitoyl-Ser-Tyr-Ser-Nle-Glu-His-DPhe-Arg-Phe-Gly-Lys-DPro-Val-NH-(CH2)3-(OCH2CH2)2-CH2-NH2, coupled to capsules (peptide)
peptide: SYSXEHFRFGKPV
modifications: N-terminal palmitoyl; Nle at 4 (X); D-Phe at 7; D-Pro at 12; C-terminal NH-(CH2)3-(OCH2CH2)2-CH2-NH2
notes: Coupled to the outer surface of fluorescent polymer capsules in the assay; Stereochemistry of the residue at 9 is not specified; also called peptide of formula (I), AA1 = Phenylalanine
B6: Pamitoyl-Ser-Tyr-Ser-Nle-Glu-His-DPhe-Arg-Tyr-Gly-Lys-DPro-Val-NH-(CH2)3-(OCH2CH2)2-CH2-NH2, coupled to capsules (peptide)
peptide: SYSXEHFRYGKPV
modifications: N-terminal palmitoyl; Nle at 4 (X); D-Phe at 7; D-Pro at 12; C-terminal NH-(CH2)3-(OCH2CH2)2-CH2-NH2
notes: Coupled to the outer surface of fluorescent polymer capsules in the assay; Stereochemistry of the residue at 9 is not specified; also called peptide of formula (I), AA1 = Tyrosine
B7: Pamitoyl-Ser-Tyr-Ser-Nle-Glu-His-DPhe-Arg-(5-hydroxytryptophan)-Gly-Lys-DPro-Val-NH-(CH2)3-(OCH2CH2)2-CH2-NH2, coupled to capsules (peptide)
peptide: SYSXEHFRXGKPV
modifications: N-terminal palmitoyl; Nle at 4 (X); D-Phe at 7; 5-hydroxytryptophan at 9 (X); D-Pro at 12; C-terminal NH-(CH2)3-(OCH2CH2)2-CH2-NH2
notes: Coupled to the outer surface of fluorescent polymer capsules in the assay; also called peptide of formula (I), AA1 = 5-hydroxytryptophan
B8: Pamitoyl-Ser-Tyr-Ser-Nle-Glu-His-DPhe-Arg-(L-3,4-dihydroxyphenylalanine)-Gly-Lys-DPro-Val-NH-(CH2)3-(OCH2CH2)2-CH2-NH2, coupled to capsules (peptide)
peptide: SYSXEHFRXGKPV
modifications: N-terminal palmitoyl; Nle at 4 (X); D-Phe at 7; L-3,4-dihydroxyphenylalanine at 9 (X); D-Pro at 12; C-terminal NH-(CH2)3-(OCH2CH2)2-CH2-NH2
notes: Coupled to the outer surface of fluorescent polymer capsules in the assay; also called peptide of formula (I), AA1 = L-3,4-dihydroxyphenylalanine
B9: Palm-Ile-Ser-Leu-Leu-Asp-(d)Ala-Gln-Ser-NH2 (peptide)
peptide: ISLLDAQS
HELM: PEPTIDE1{[CCCCCCCCCCCCCCCC(=O)[*:2]].I.S.L.L.D.[dA].Q.S.[am]}$$$$V2.0
SMILES: CCCCCCCCCCCCCCCC(=O)N[C@H](C(=O)N[C@@H](CO)C(=O)N[C@@H](CC(C)C)C(=O)N[C@@H](CC(C)C)C(=O)N[C@@H](CC(=O)O)C(=O)N[C@H](C)C(=O)N[C@@H](CCC(N)=O)C(=O)N[C@@H](CO)C(N)=O)[C@@H](C)CC
B10: Ac-Ile-Ser-(d)Leu-Leu-Asp-(d)Ala-Gln-Ser-NH2 (peptide)
peptide: ISLLDAQS
HELM: PEPTIDE1{[ac].I.S.[dL].L.D.[dA].Q.S.[am]}$$$$V2.0
SMILES: CC[C@H](C)[C@H](NC(C)=O)C(=O)N[C@@H](CO)C(=O)N[C@H](CC(C)C)C(=O)N[C@@H](CC(C)C)C(=O)N[C@@H](CC(=O)O)C(=O)N[C@H](C)C(=O)N[C@@H](CCC(N)=O)C(=O)N[C@@H](CO)C(N)=O
B11: Palm-Ile-Ser-Leu-Leu-Asp-Ala-Gln-Ser-NH2 (peptide)
peptide: ISLLDAQS
HELM: PEPTIDE1{[CCCCCCCCCCCCCCCC(=O)[*:2]].I.S.L.L.D.A.Q.S.[am]}$$$$V2.0
SMILES: CCCCCCCCCCCCCCCC(=O)N[C@H](C(=O)N[C@@H](CO)C(=O)N[C@@H](CC(C)C)C(=O)N[C@@H](CC(C)C)C(=O)N[C@@H](CC(=O)O)C(=O)N[C@@H](C)C(=O)N[C@@H](CCC(N)=O)C(=O)N[C@@H](CO)C(N)=O)[C@@H](C)CC
B12: Ac-Ile-Ser-Leu-Leu-Asp-(d)Ala-Gln-Ser-NH2 (peptide)
peptide: ISLLDAQS
HELM: PEPTIDE1{[ac].I.S.L.L.D.[dA].Q.S.[am]}$$$$V2.0
SMILES: CC[C@H](C)[C@H](NC(C)=O)C(=O)N[C@@H](CO)C(=O)N[C@@H](CC(C)C)C(=O)N[C@@H](CC(C)C)C(=O)N[C@@H](CC(=O)O)C(=O)N[C@H](C)C(=O)N[C@@H](CCC(N)=O)C(=O)N[C@@H](CO)C(N)=O
B13: Palm-Ile-Ser-(d)Leu-Leu-Asp-(d)Ala-Gln-Ser-NH2 (peptide)
peptide: ISLLDAQS
HELM: PEPTIDE1{[CCCCCCCCCCCCCCCC(=O)[*:2]].I.S.[dL].L.D.[dA].Q.S.[am]}$$$$V2.0
SMILES: CCCCCCCCCCCCCCCC(=O)N[C@H](C(=O)N[C@@H](CO)C(=O)N[C@H](CC(C)C)C(=O)N[C@@H](CC(C)C)C(=O)N[C@@H](CC(=O)O)C(=O)N[C@H](C)C(=O)N[C@@H](CCC(N)=O)C(=O)N[C@@H](CO)C(N)=O)[C@@H](C)CC

For one assay, the target named is T1, Melanocortin receptor 1 (MC1R) on melanocytes (human, UniProt Q01726 1-317).
T1 construct: whole, on cells; also called MC1 receptor; MCR1 receptors on the melanocyte
T1 sequence (Q01726 whole entry): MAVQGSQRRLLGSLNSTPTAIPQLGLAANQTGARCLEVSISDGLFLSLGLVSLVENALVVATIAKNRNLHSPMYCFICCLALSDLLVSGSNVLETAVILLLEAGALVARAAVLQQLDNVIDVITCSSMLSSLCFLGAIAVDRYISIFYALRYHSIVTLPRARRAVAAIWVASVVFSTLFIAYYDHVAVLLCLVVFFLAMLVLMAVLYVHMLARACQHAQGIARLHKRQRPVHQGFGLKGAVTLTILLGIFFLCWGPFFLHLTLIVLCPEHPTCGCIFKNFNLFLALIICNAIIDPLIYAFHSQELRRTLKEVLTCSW
Put plainly: flow cytometry, cell-associated fluorescence of peptide-targeted capsules (50 µg/mL, 37° C., 3 h) on melanocytes in a mixed cell population. The method, then:
Distinct types of cells were incubated with the capsules of the invention (50 μg/mL) which have been targeted with different peptides of formula (Ia) or non-targeted capsules (50 μg/mL) at 37° C. for 3 h. The peptides of formula (I) used to target the capsules in this example are peptides of formula Pamitoyl-Ser-Tyr-Ser-Nle-Glu-His-DPhe-Arg-(AA₁)-Gly-Lys-DPro-Val-NH—(CH₂)₃—(OCH₂CH₂)₂—CH₂—NH₂ wherein the nature of the aminoacid in position 9 (AA₁) is indicated in the first column of table 3. Cells were washed and stained with receptor-specific antibody or isotype control antibody to specifically detect distinct types of cells. Subsequently, cells were analyzed by flow cytometry on a FacsCalibur. The cell associated fluorescence was calculated by dividing the mean cell fluorescence intensity (mfi) for a given sample by the mfi of melanocytes incubated with targeted capsules, which was set at 100% (see FIG. 5 and table 4).
B1: the “Cell specific binding (%)” value stood at 71%.

For B2, the “Cell specific binding (%)” value came to 74%. Same read-out and setting: under B3 stands 75%. For B4, the “Cell specific binding (%)” value worked out at 58%.

On to B5, for which the “Cell specific binding (%)” value was determined as 85%. On the same count and under the same terms, the same measure for B6: 80%; for B7: 73%. The same measure, in the same setting: under B8 stands 80%.

The target in a further assay is Mushroom Tyrosinase (mushroom). Put plainly: cell-based or functional assay.
For B9, the “% INHIBITION TYROSINASE” value was determined as 42%.

Ac-ISLLDAQS-NH2 [Ac-Ile-Ser-Leu-Leu-Asp-Ala-Gln-Ser-NH2]: the “% INHIBITION TYROSINASE” value was 28%. Regarding B10, the “% INHIBITION TYROSINASE” value is 40%. The same measure, in the same setting: under B11 stands 39%. On the same count and under the same terms, the same measure for B12: 31%; for B13: 48%.
